Reference: paper PMC5059453, “Structure of ubiquitylated-Rpn10 provides insight into its autoregulation mechanism” (Nature Communications, 2016)

B1: free mono-ubiquitin (wild type) (natural protein)
chain: not shown
notes: ubiquitin (Ub), the mature 76-residue protein; also called Ub wt; source: purified, size exclusion chromatography before each experiment

Tests used:
Assay in all cases: SPR; α-GST antibody immobilized on a CM5 chip captures GST-Rpn10 derivatives (ligands); free mono-Ub variants as analytes; 10 mM HEPES pH 7.0, 150 mM NaCl, 0.005% polysorbate-20, 25 °C; triplicate; single-site-binding model
Details in all cases: both partners purified
[1] = target: T1, GST-Rpn10 vWA domain (residues 1-189) (S. cerevisiae, UniProt P38886 1-189)
T1 construct: Rpn10, S. cerevisiae, N-terminal vWA (Von Willebrand factor type A) domain, residues 1-189 (made from pGST-Rpn10 by deleting residues 190-268); also called wild-type vWA; source: expressed and purified as GST-fusion protein, size exclusion chromatography before each experiment
T1 sequence (looked up): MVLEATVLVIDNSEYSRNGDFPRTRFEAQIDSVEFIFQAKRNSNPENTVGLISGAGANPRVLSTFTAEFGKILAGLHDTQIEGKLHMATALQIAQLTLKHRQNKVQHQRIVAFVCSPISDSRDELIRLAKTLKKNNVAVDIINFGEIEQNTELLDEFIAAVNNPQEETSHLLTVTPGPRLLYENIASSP

[2] = target: T2, GST-Rpn10 (full-length Rpn10) (S. cerevisiae, UniProt P38886 1-268)
T2 construct: Rpn10, proteasomal ubiquitin receptor, S. cerevisiae; open reading frame encodes residues 1-268; Plasmid pGST-Rpn10; also called Rpn10 wt; wild-type full-length Rpn10; source: expressed and purified as GST-fusion protein, size exclusion chromatography before each experiment
T2 sequence (looked up): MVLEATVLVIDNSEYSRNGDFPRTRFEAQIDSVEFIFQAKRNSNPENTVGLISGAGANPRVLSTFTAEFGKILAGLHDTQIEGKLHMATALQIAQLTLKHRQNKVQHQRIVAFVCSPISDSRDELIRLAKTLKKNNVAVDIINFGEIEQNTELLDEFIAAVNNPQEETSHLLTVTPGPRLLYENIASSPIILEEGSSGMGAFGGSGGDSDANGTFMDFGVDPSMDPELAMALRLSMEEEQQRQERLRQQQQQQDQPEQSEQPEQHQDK

[3] = target: B1

Binder	Kd [1]	Kd [2]	Kd [3]
B1	~330 µM	~270 µM	–
SMDPELAMALRLSMEEEQQR (domain or fragment, S. cerevisiae, UniProt P38886 223-242, looked up, also called its UIM alone; source: expressed and purified as GST-fusion protein, size exclusion chromatography before each experiment) [GST-Rpn10 UIM]	–	–	~180 µM
